Laboratory results from PMC3302758 (Molecular Biology of the Cell, 2012).

Molecular target: Cystic fibrosis transmembrane conductance regulator (CFTR), wild type, transiently expressed in HEK293 cells (UniProt P13569 1-1480)
Experiment: co-IP

Sequence of Cystic fibrosis transmembrane conductance regulator (CFTR), wild type, transiently expressed in HEK293 cells (P13569 whole entry): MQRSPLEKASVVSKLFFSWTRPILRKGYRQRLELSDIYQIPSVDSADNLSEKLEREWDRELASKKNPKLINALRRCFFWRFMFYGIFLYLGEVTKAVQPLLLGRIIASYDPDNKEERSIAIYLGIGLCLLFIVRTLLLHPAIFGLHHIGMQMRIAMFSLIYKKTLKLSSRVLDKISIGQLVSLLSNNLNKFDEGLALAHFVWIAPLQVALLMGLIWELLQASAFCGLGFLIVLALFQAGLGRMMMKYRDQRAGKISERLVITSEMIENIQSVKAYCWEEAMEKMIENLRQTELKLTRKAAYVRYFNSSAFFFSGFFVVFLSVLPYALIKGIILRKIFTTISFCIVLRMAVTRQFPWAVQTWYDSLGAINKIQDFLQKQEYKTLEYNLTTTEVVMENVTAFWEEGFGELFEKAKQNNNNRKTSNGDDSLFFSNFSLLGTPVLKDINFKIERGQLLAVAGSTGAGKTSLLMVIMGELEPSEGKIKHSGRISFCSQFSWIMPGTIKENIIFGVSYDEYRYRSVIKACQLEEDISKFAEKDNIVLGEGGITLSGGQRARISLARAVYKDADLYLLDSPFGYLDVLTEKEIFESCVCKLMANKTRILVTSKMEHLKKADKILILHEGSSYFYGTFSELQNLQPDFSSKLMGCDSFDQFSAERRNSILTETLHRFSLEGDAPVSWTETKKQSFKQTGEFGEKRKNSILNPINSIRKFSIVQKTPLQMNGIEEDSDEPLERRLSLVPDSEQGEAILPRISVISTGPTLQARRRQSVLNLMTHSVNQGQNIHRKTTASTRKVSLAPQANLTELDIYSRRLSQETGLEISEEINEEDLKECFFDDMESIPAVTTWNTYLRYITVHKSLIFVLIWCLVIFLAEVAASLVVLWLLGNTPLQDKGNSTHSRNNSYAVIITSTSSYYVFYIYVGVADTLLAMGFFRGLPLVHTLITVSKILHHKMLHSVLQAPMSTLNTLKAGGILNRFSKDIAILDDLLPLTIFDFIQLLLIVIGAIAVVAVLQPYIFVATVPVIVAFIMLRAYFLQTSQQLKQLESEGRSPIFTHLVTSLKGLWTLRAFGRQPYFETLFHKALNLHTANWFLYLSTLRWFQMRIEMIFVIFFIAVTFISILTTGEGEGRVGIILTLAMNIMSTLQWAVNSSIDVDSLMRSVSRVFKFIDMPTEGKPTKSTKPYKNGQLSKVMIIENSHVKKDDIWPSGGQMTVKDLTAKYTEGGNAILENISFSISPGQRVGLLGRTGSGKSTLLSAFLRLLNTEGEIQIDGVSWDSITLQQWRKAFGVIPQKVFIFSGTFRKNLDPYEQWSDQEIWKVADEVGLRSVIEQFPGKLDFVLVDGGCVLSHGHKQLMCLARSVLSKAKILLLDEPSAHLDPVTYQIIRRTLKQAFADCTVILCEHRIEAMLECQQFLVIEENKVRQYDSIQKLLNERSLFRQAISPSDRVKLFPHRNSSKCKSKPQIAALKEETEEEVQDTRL

B1: 14-3-3ε, endogenous in HEK293 cells (natural protein, human (endogenous in HEK293), UniProt P62258 1-255, looked up)
chain: MDDREDLVYQAKLAEQAERYDEMVESMKKVAGMDVELTVEERNLLSVAYKNVIGARRASWRIISSIEQKEENKGGEDKLKMIREYRQMVETELKLICCDILDVLDKHLIPAANTGESKVFYYKMKGDYHRYLAEFATGNDRKEAAENSLVAYKAASDIAMTELPPTHPIRLGLALNFSVFYYEILNSPDRACRLAKAAFDDAIAELDTLSEESYKDSTLIMQLLRDNLTLWTSDMQGDGEEQNKEALQDVEDENQ
Question: B1 was tested. Which “fold increase of the co-precipitate with forskolin against basal” value did it give?
Answer: 3.1 fold
